Experimental findings from patent EP4725970A1 (Fortvita Biologics Inc., dated 2026) are described below.

Assay [1] deals with T1, cynomolgus monkey BCMA (full-length, on cells) (cynomolgus monkey, UniProt A0A2K5UD97 1-183).
T1 construct: whole, on cells; also called cynoBCMA; GS-CHO-cynoBCMA
Briefly: flow cytometry, GS-CHO-cynoBCMA cells.

Assay [2] addresses T2, human BCMA (full-length, on cells) (human, UniProt Q02223 1-184).
T2 construct: Overexpressed on GS-CHO and 293T cells; also the BCMA of H929 and L363 myeloma cells in the killing assays; also called hBCMA; wild-type BCMA
T2 sequence: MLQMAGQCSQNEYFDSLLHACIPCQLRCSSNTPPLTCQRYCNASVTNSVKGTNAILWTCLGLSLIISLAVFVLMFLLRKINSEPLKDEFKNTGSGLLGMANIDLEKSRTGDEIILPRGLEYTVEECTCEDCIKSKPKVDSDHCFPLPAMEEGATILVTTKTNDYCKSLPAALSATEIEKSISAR
Put plainly: flow cytometry, GS-CHO-hBCMA cells.

For a further assay, the target named is T3, Cyno BCMA-His (cynomolgus monkey, UniProt A0A2K5UD97 1-53).
T3 construct: also called Cyno BCMA (ACRO BCA-C52H7); monkey BCMA
T3 sequence (A0A2K5UD97 entry or part of it): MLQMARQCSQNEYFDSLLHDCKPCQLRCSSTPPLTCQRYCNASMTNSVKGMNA
Briefly: BLI (Octet), 1:1 fit.

Another assay concerns the target T4, human CD3E&G-His/Free (human, UniProt P07766 23-126; P09693 23-116).
T4 construct: Bought recombinant heterodimer; 'His/Free' as printed (one chain His-tagged); also called human CD3 E&G heterodimer
Briefly: BLI (Octet), 1:1 fit.

Assay [3] addresses T2, human BCMA (full-length, on cells). Put plainly: cell-based or functional assay.
Assay [4] shares this target. Briefly: cell-based or functional assay. This is another data set of the same source.
For the next assay, the target named is T5, cyno CD3E&G-His/Free (cynomolgus monkey, UniProt Q95LI5 22-117; Q95LI7 23-113).
T5 construct: Bought recombinant heterodimer; also called monkey CD3 E&G
T5 sequence (looked up) 1: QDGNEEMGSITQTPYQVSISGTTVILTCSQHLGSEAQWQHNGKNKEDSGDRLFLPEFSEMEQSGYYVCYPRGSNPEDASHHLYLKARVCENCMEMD
T5 sequence (looked up) 2: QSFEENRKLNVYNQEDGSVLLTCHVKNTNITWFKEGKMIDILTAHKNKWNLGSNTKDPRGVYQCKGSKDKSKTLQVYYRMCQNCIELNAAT
Briefly: BLI (Octet), 1:1 fit.

T4 sequence (P07766 23-126, chain 1 of 2): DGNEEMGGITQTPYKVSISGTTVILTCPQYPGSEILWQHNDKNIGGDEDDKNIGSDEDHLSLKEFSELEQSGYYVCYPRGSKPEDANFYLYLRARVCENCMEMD
T4 sequence (P09693 23-116, chain 2 of 2): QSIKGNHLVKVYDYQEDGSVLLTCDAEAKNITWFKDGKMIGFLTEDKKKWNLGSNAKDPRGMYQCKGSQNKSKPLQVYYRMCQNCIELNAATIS
T1 sequence (A0A2K5UD97 entry or part of it): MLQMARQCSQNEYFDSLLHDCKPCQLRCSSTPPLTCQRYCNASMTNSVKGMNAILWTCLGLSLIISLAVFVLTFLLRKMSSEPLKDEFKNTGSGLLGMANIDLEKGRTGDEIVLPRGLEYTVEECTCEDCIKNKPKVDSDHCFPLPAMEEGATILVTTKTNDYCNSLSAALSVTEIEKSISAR

B1: Roche-BCMA/CD3 (Alnuctamab) (bispecific antibody, human IgG1, kappa, L234A L235A)
chain: EVQLLESGGGLVQPGGSLRLSCAASGFTFSTYAMNWVRQAPGKGLEWVSRIRSKYNNYATYYADSVKGRFTISRDDSKNTLYLQMNSLRAEDTAVYYCVRHGNFGNSYVSWFAYWGQGTLVTVSSASVAAPSVFIFPPSDEQLKSGTASVVCLLNNFYPREAKVQWKVDNALQSGNSQESVTEQDSKDSTYSLSSTLTLSKADYEKHKVYACEVTHQGLSSPVTKSFNRGEC
heavy 1: not shown
light: EIVLTQSPGTLSLSPGERATLSCRASQSVSDEYLSWYQQKPGQAPRLLIHSASTRATGIPDRFSGSGSGTDFTLAISRLEPEDFAVYYCQQYGYPPDFTFGQGTKVEIKRTVAAPSVFIFPPSDRKLKSGTASVVCLLNNFYPREAKVQWKVDNALQSGNSQESVTEQDSKDSTYSLSSTLTLSKADYEKHKVYACEVTHQGLSSPVTKSFNRGEC
heavy 2: EVQLLESGGGLVQPGGSLRLSCAASGFTFSDNAMGWVRQAPGKGLEWVSAISGPGSSTYYADSVKGRFTISRDNSKNTLYLQMNSLRAEDTAVYYCAKVLGWFDYWGQGTLVTVSSASTKGPSVFPLAPSSKSTSGGTAALGCLVEDYFPEPVTVSWNSGALTSGVHTFPAVLQSSGLYSLSSVVTVPSSSLGTQTYICNVNHKPSNTKVDEKVEPKSCDKTHTCPPCPAPEAAGGPSVFLFPPKPKDTLMISRTPEVTCVVVDVSHEDPEVKFNWYVDGVEVHNAKTKPREEQYNSTYRVVSVLTVLHQDWLNGKEYKCKVSNKALGAPIEKTISKAKGQPREPQVCTLPPSRDELTKNQVSLSCAVKGFYPSDIAVEWESNGQPENNYKTTPPVLDSDGSFFLVSKLTVDKSRWQQGNVFSCSVMHEALHNHYTQKSLSLSPGK
notes: also called Roche-BCMAxCD3
As to B1, the EC50 in assay [1] was found to be 3.81 nM. Further, the midpoint of the response in assay [2], the EC50, lay at 3.08 nM. In the assay with Cyno BCMA-His, this molecule came in with a Kd of 0.89 nM, a koff of 0.00125 s⁻¹ and a kon of 1.4e+06 M⁻¹ s⁻¹. For the same molecule, in the assay with human CD3E&G-His/Free, the Kd stood at 13 nM, the koff turned out to be 0.00469 s⁻¹ and the kon was found to be 361000 M⁻¹ s⁻¹. Also, the “EC50 of PBMC killing of H929 ko GPRC5D cells, donor1” value in assay [3] came to 4.5 pM. Also, the “EC50 of PBMC killing of H929 ko GPRC5D cells (LDH)” value in assay [4] was determined as 16.1 pM.

B2: B3-7F5.3 (87) (7F5.3_sp34.87_497_triFab) (trispecific antibody, human IgG1, kappa, lambda, L234A L235A)
heavy 1: not shown
light 1: not shown
heavy 2: not shown
light 2: DIQMTQSPSSLSASVGDRVTITCRASQSISRYLNWYQDKPGKAPKLLIYAASSLQSGVPSRFSGSGSGTDFTLTISSLQPEDFATYYCQQKYFDITFGGGTKVEIKRTVAAPSVFIFPPSDECLKSGTASVVCLLNNFYPREAKVQWKVDNALQSGNSQESVTEQDSKDSTYSLSSTLTLSKADYEKHKVYACEVTHQGLSSPVTKSFNRGES
light 3: QAVVTQEPSLTVSPGGTVTLTCRSSTGAVTTSNYANWVQKKPGQAPRGLIGGTNKRAPGVPARFSGSLLGDKAALTLLGAQPEDEAEYYCALWYSNLWVFGQGTKLTVLGQPKAAPSVTLFPPSSEELQANKATLVCLISDFYPGAVTVAWKADSSPVKAGVETTTPSKQSNNKYAASSYLSLTPEQWKSHRSYSCQVTHEGSTVEKTVAPTECS
notes: also called Exemplary antibody No. 5
With B2, in the assay with Cyno BCMA-His, the Kd was determined as 0.244 nM, the koff came out at 0.0002 s⁻¹ and the kon amounted to 821000 M⁻¹ s⁻¹. In the assay with cyno CD3E&G-His/Free, the Kd is 58.6 nM, the koff worked out at 0.012 s⁻¹ and the kon was determined as 205000 M⁻¹ s⁻¹. For the same molecule, in the assay with human CD3E&G-His/Free, binding was characterised by a dissociation constant (Kd) of 64.1 nM, the koff is 0.0152 s⁻¹ and the kon came to 236000 M⁻¹ s⁻¹. The “EC50 of PBMC killing of H929 ko GPRC5D cells, donor1” value in assay [3] came to 167 pM.
